Drawing on patent US20230226096A1 (Orna Therapeutics, Inc., priority 2020, published 2023), this text covers Expression for nine molecules.

The labels stand for the following.
B1: Aichivirus KVGH (nucleic acid, listed as Aichivirus sp.)
DNA: TACTCCATTCAGCTTCTTCGGAACCTGTTCGGAGGAATTAAACGGGCACCCATACTCCCCCCCACCCCCCTTTTGTAACTAAGTATGTGTGCTCGTGACCTTGACTCCCACGGAACGGACCGATCCGTTGGTGAACAAACAGCTAGGTCCACATCCTCCTTTCCCCTGGGAGGGTCCCCGCCCTCCCACATCCCCCCCCCAGCCTGACGTGTCACAGGCTGTGTGAAGCCCCCGCGAAAGCTGCTCACGTGGCAATTGTGGGTCCCCCCTTCATCAAGACACCAGGTCTTTCCTCCTTAAGGCTAGCCCCGGCGTGTGAACTCACGTTGGGCAACTAGTGGTGTCACTGTGCGCTCCCAATCTCGGCCGCGGAGTGCTGTTCCCCAAGCCAAACCCCTGGCCCTTCACTATGTGCCTGGCAAGCACACCTGAGAAGGTGTTCCGCTGTGGCTGCCAGCCTGGTAACAGGTGCCCCAGTGTGCGTAACCTTCTTCCGTCTTCGGACGGTGGTGATTGGTTAAGATTTGGTGTAAGGTTCATGTGCCAACGCCCTGTGCGGGATGAAACCTCTACTGCCCTAGGAATGCCAGGCAGGTACCCCACCTTCGGGTGGGATCTGAGCCTGGGCTAATTGTCTACGGGTGGTTTCATTTCCAATTCTTTCATGTCGGAGTC
B2: Apodemus agrarius picornavirus strain Longquan-Aa118 (nucleic acid)
DNA: TTACTCAGCGTAACTACTCCGGGTTACGTGATGAAGAAGAGGCTACGGAGATTCTCGGGCTACGGCCCTGGAGCCACTCCGGCTCCTAAAGATTTAGAAGTTTGAGCACACCCGCCCACTAGGGCCCCCCATCCAGGGGGGCAACGGGCAAGCACTTCTGTTTCCCCGGTATGATCTGATAGGCTGTAACCACGGCTGAAACAGAGATTATCGTTATCCGCTTCACTACTTCGAGAAGCCTAGTAATGATGGGTGAAATTGAATCCGTTGATCCGGTGTCTCCCCCACACCAGAAACTCATGATGAGGGTTGCCATCCCGGCTACGGCGACGTAGCGGGCATCCCTGCGCTGGCATGAGGCCTCTTAGGAGGACGGATGATATGGATCTTGTCGTGAAGAGCCTATTGAGCTAGTGTCGACTCCTCCGCCCCCGTGAATGCGGCTAATCCTAACCCCGGAGCAGGTGGGTCCAATCCAGGGCCTGGCCTGTCGTAATGCGTAAGTCTGGGACGGAACCGACTACTTTCGGGAAGGCGTGTTTCCATTTGTTCATTATTTGTGTGTTTATGGTGACAACTCTGGGTAAACGTTCTATTGCGTTTATTGAGAGATTCCCAACAATTGAACAAACGAGAACTACCTGTTTTATTAAATTTACACAGAGAAGAATTACA
B3: Rhinolophus picornavirus strain Henan-Rf265 (nucleic acid)
DNA: CGGAACGTTGTATGCTCAGGGCGTAGGCACCACCCACGGGTGGTGCCTACACGTGTGGACTAAACCACACACTCTTTTCAGCACTTAGTGCTGCTATCTCTTTTTGTAACTTAGAAGTTTGTACACAATGCGTTAGGGCCACACATCCAGTGTGGTATCGCAAAGCACTTCTGTTTCCCCGGTGCTAGTAGGAGGGTGGCTGCTCCACGGCCACTTGCCGAACCCATCGTTACCCGACTCATTACTTCGCAAAGCCTAGTAACCCAGTTGAAGCAAGCCCGGCGTGTTCCGGTCAGGAAAAACCCCCCCTGGCCAGAAACATGTGATGAGGGTGGGCTATCCCCACTGGTGACAGTGAGCCCTCCCTGCGTTGGCACATGGCCCGATCTGGGCGTGGTTCTTGTGGATGCTGCCGAAGAGCCCCGTGAGCTAGTGTTTATACCGCCGGCCTCGTGAATGCGGCTAACCCTAACCCCGGAGCAGAGGCTACTGAAGCCACAGTAGTCGCTGTCGTAACGAGTAATTCTGGGATGGGACCGACTACTTTCGAGTGTCCGTGTTTCCTTTATTCTTTTATTGTTGTTTATGGTGACAAAC
B4: Human enterovirus 109 (nucleic acid, listed as Enterovirus sp.)
DNA: TTTAAAACAGCCTGGGGGTTGTTCCCACCCCCAGGGCCCACTGGGCGTTAGTACTCTGGTATCGCGGTACCTTAGTATGCCTGTTTTATGTCTCCTTTCCCCCGCAACTTTAGAAGTAATCAAGTTATGGCTCAACAGTCGCCACACCCCCAGTGTGGTTCCGAGCAAGCACTTCTGTTCCCCGGTTGCGTCTTATATGCTGTGTGAACGGCAGAAAGGGACAATATCGTTATCCGCTCAACTACTACGGGAAGCCTAGTACCACCATGGATTGACCTGAAAGTTGCGTTCAGCGCACCCCCAGCGCAGCTCAGGCCGATGAGGCTCCGAATACCCCACGGGCGACCGTGTCGGAGCCTGCGTTGGCGGCCTGCCCACGTTGCAAAACGTGGGACGCTCATTTCATGACATGGTGCGAAGAGCCTACTGTGCTAGTTGAGAGTCCTCCGGCCCCTGAATGTGGATAATCCTAACCACTGAACCTACGGGCGCAAACCAGCGTCTGGTAGGCCGTAACGCGCAAGTCGGTGGCGGAACCAACTACTTTGGGTGTCCGTGTTTCCTTTTATCTTTTTGAATGTTTATGGTGACAATTGTTGTGTACAGTTGTTACCATAGTTTGCATTCAGAAATAAACCTAACACTTTCCAATTATTTGTTACA
B5: Niviventer confucianus picornavirus (nucleic acid)
DNA: CCCTTTCATAACCCCCCCCTTTTAACCCAACCCTTCGTAACCGTACGCTTCACTCGCCTTTGGGTATAGCGGCCCAATGTGCTGAAGAAAAGGATACGCTATAAGGGGCCAACGGGTGGTGGCCCTTAAGACCACCCAACCTAGAAGCTTGTACACTCGGGCAATAGTGAGGCCCACATCCAGTGGGTCAAGCCCAAAGCATTCTTGTTCCCCGGTATGATCTCATAAGCTGTACCCACGGCTGAAAGAGTGATTATCGTTATCCCACTCAGTACTTCGGAGAGCCTAGTACACCACTTGGAAATGGAAGTCTGTGATCCGGGGTTGACCCTGAACCCCAGAAACTCATGATGAGGCTAACCTTCCCGAACACGGCGACGTGTGGTTAGCCTGCGCTGGCATGAGGCCTCTTTGTAGGCAGACTGAAATGGAAGGGTGACGAAGAGCCGACTGAGCTACTGTTTTATTCCTCCGGCCCCCTGAATGCGGCTAATCCTAACTCCTGGTCCAGTACTTGTAACCCAACAGGTGGCTGGTCGTAATGCGTAAGCCGGGAGCGGAACCGACTACTTTGGGGCGTCCGTGTTTCTCAATATTATTCATTTCTAGCTTATGGTGACAATTTATGATTGCAGAGATTGTGCTGTATTTGTGTCTGAGAGAAGAAGTAACAAT
B6: Bat picornavirus isolate BtRs-PicoV (nucleic acid)
DNA: TTTCAAAAGGCCCTGGGCATACGGCGTTATTCGTAACGTCGTATGTCCAGGGCGGTAGCATCAGGCCAAGGCCTGATGCTACCACGTGTGGACTAAACCACACACTCTTCTTGTGACACGTTGTGTCACCTATCCCTTTCTTGGTAACTTAGAAGCTTGTACACTTACGCACGTAGGTGCCCCACATCCAGTGGGGTTTGTGCAAAGCAATCTTGTTCCCCGGTAAACCCTGATAGGCTGTAACCACGGCCGAAACAAGGTTTGTCGTTACCCGACTCACTACTACACAAAGCCTAGTAAAGTTCAATGAAAGTGCGCAGCGTGATCCGGTCAAAACCCCCTTGACCAGAAACACATGATGAGGGTCACCAACCCCCACTGGCGACAGTGTGGTGTCCCTGCGTTGGCATGTGGCCTCGTAGAGGCGTTGCAATCTGGATTTGCTCCGAAGAGCCCCGTGTGCTAGTGTTTATACCTCCGGCCCCTTGAATGCGGCTAATCCTAACCCCCGAGCATGTACACACAAGCCAGTGTGTAGCATGTCGTAATGAGCAATTTGGGGATGGAACCGACTACTTTAGGGTGTCCGTGTTTCTCATTATTCTTTGTTTGATGTTTT
B7: Aichivirus DV (nucleic acid, listed as Aichivirus sp.)
DNA: TACTCCATTCAGCTTCTTCGGAACCTGTTCGGAGGAATTAAACGGGCACCCATACACCCCCACCCCCTTTTCTGCAACTTAAGTATGTGTGCTCGTAATCTTGACTCCCACGGAACGGATCGATCCGCTGGAGAACAAACTGCTAGATCCACATCCTCCCTTCCCCTGGGAGGACCCCGGTCCTCCCACATCCTCCCCCCAGCCTGACGTAACACAGGCTGTGTGAAGTCCCCGCGAAAGCTGCTCACGTGGCAATTGTGGGTCCCCCCTTCACCAAGACACCAGGTCTTTCCTCCTTAAGGCTAGCCCCGATGTGTGAATTCACATTGGGCAACTAGTGGTGTCACTGTGCGCTCCCAATCTCGGCCGCGGAGTGCTGTTCCCCAAGCCAAACCCCTGGCCCTTCACTATGTGCCTGGCAAGCATATCTGAGAAGGTGTTCCGCTGTGGCTGCCAGCCTGGTAACAGGTGCCCCAGTGTGCGTAACCTTCTTCCGTCTCCGGACGGTAGTGATTGGTTAAGATTTGGTGTAAGGTTCATGTGCCAACGCCCTGTGCGGGATGAAACCTCTACTGCCCTAGGAATGCCAGGCAGGTACCCCACCTTCGGGTGGGATCTGAGCCTGGGCTAATTGTCTACGGGTAGTTTCATTTCCAATTCTTTTATGTCGGAGTC
B8: Human enterovirus C105 (nucleic acid, listed as Enterovirus sp.)
DNA: CCCCTAGGATCCACTGGATGTCAGTACACTGGTATCGTGGTACCTTTGTACGCCTGTTTTATACCCCCTTCCCCGCAACTTTAGAAGCATCAAAAGCACCGCTCAATAGTCACCACACCCCCAGTGTGGTTTCGAGCAAGCACTTCTGTTTTCCCGGTTGCGTCCCATATGCTGTGCAAACGGCAAAAAGGGACAATATCGTTACCCGCTTGTATACTACGGGAAACCTAGTACCACCATTGATTGTGTTGAGAGTTGCGCTCATCACCTTTCCCCGGTGTAGCTCAGGCCGATGAGGCTCAGAATCCCCCACAGGTGACTGTGTCTGAGCCTGCGTTGGCGGCCTGCCCTCGCCTTATGGCGTGGGACGCTTGATACATGACATGGTGCGAAGAGTCTACTGTGCTATGCAAGAGTCCTCCGGCCCCTGAATGTGGCTAATCCTAACCACTGATCCCACGCACGCAAACCAGTGTGTAGTGGGTCGTAACGCGCAAGTCGGTGGCGGAACCAACTACTTTGGGTGACCGTGTTTCCTTTATTACTTATTGAATGTTTATGGTGACAATTGTTTGATTCAGTTGTTGCCATTCTCTACATTCATTTACCCAGCATCAAACCAATTGAACTGTTACA
B9: Bovine picornavirus (nucleic acid)
DNA: TTTTCTCCCCTCCCCCTCCAACTACCTTTTCCCCCTCTTGTAACGCTAGAAGTTTGTGCAAACCGCCTGTAGGGTACTGCAATCCAGCAGTGCATAGGCTAAGCTTTTCTTGTTACCCCACCCCACATTATACTGAGGAGGATTGTGAAATTGTGTTAGTATGGGTTAGTAGCGGTGACCCGGGTAACCCCAACCCAGAAACTCACGGATGAGATGAACAGGACCCCACATGGTAACGTGTGTGTTCGTCTGCCCCGCAAGGTGAGGCCGTGAGAGCTTTGCACGCGAAAACCTTGAAAACCCAAAAGTACCTTGAGCTCTTCGCTATTTTGTGTTTCCTCCAGGACCCTGAATGCGGCTAAACCTAACCCGCGATCCGCACGTAGCAACCCAGCTAGAGTGTGGTCGTAATGCGCAAGTTGCGGGCGGTACCGACTACTTTGGTGTTCCTGTGTTTCCTTTATTTTATTTTGAATTTTTATGGTGACAACAGCTAGAAAATAAGAGTGAAC

The subject of the series is HEK293 cells. It is filed as cell-based, human. The settings on record: luminescence from secreted Gluc in supernatant 24 hours after transfection of HEK293 cells; circular RNA encoding Gluc with the named IRES (UTR truncated to 675 nt).
Molecule B1 registered an Expression of 1.72E+07.

The molecule B2 came in with an Expression of 1.90E+08.

B3 registered an Expression of 3.85E+05.

Consider B4, for which the Expression came out at 4.92E+05.

As for B5, the Expression amounted to 6.10E+07.

For B6, the Expression was determined as 1.13E+06.

Molecule B7 had an Expression of 7.79E+07.

The molecule B8 registered an Expression of 5.49E+05.

Regarding B9, the Expression came out at 3.82E+06.
